Results published in article PMC2188614 (The Journal of Experimental Medicine, 1990).

B1: CD3 zeta (transfected cDNA) (natural protein, murine, UniProt P24161-1 22-164, looked up)
chain: QSFGLLDPKLCYLLDGILFIYGVIITALYLRAKFSRSAETAANLQDPNQLYNELNLGRREEYDVLEKKRARDPEMGGKQQRRRNPQEGVYNALQKDKMAEAYSEIGTKGERRRGKGHDGLYQGLSTATKDTYDALHMQTLAPR
B2: CD3 zeta (endogenous) (natural protein, murine, UniProt P24161-1 22-164, looked up)
chain: QSFGLLDPKLCYLLDGILFIYGVIITALYLRAKFSRSAETAANLQDPNQLYNELNLGRREEYDVLEKKRARDPEMGGKQQRRRNPQEGVYNALQKDKMAEAYSEIGTKGERRRGKGHDGLYQGLSTATKDTYDALHMQTLAPR
B3: CD3 eta (transfected cDNA) (natural protein, murine, UniProt P24161-2 22-206, looked up)
chain: QSFGLLDPKLCYLLDGILFIYGVIITALYLRAKFSRSAETAANLQDPNQLYNELNLGRREEYDVLEKKRARDPEMGGKQQRRRNPQEGVYNALQKDKMAEAYSEIGTKGERRRGKGHDGLYQDSHFQAVQFGNRREREGSELTRTLGLRARPKGESTQQSSQSCASVFSIPTLWSPWPPSSSSQL

Biological target: the molecule itself
Assay: 2-D nonreducing/reducing SDS-PAGE

Row | Protein | stoichiometry N
1 | B1 | 2
2 | B2 | 2
3 | B3 | 2
